We go through 22 molecules from patent publication US20210292393A1 (published 2021).

Substitutions are numbered along the chain they refer to.

B1: antibody 474 (antibody, V domains shown)
VH: EVQLVESGGGLVQPGGSLRLSCAASGFTFSSYWMHWVRQAPGKGLVWVSRINSDGSSTSYADSVKGRFTISRDNAKNTLYRQMNSLRAEDTAVYYCALGPLDIVGSYYYYGMDVWGQGTTVTVSS
VL: NFMLTQPHSVSESPGKTVTISCTGSSGSIASNYVQWYQQRPGSAPTTVIYEDNQRPSGVPDRFSGSIDSSSNSASLTISGLKTEDEADYYCQSYDSSNQDVVFGGGTKLTVL
B2: antibody 452 (antibody, V domains shown)
VH: QVQLVESGGGLVKPGGSLRLSCAASGFTFSDYYLSWIRQAPGKGLEWVSYISSSGSNIYYADSVKGRFTISRDNAKNSLYLQMNSLRADDTAVFYCARAGRYCSGGSCRVEYFQHWGQGTLVTVSS
VL: SYELTQPPSVSVSPGQTARITCSGDALPKQYAYWYQQKPGQAPVLVIYKDNERPSGIPERFSGSSSGTTATLTISGVQAEDEADYYCQSADSSGTVVFGGGTKLTVL
B3: antibody 444 (antibody, V domains shown)
VH: QVQLVESGGGLVKPGGSLRLSCAASGFTFSDYYMSWIRQAPGKGLEWVSYISSSGSTIYYADSVKGRFTISRDNAKNSLYLQMNSLRAEDTAVYYCARERKVVVAATRNYYYYYGMDVWGQGTTVTVSS
VL: SYELTQPPSVSVSPGQTARITCSGDALPKQYAYWYQQKPGQAPVLVIYKDSERPSGIPERFSGSSSGTTVTLTISGVQAEDEADYYCQSADSSTWVFGGGTKLTVL
B4: antibody 443 (antibody, V domains shown)
VH: QMRLEESGPGLVKPSETLSLTCTVAGGSITSSDYFWGWLRQSPGKGLEWIASTYHGGSIQYHPALKSRVTISVDASKNQISLRLSSVTAADTAVYYCARDRGDDGPMGTYYFDHWGQGALVTVSS
VL: QSVLTQPPSVSGAPGQSVTISCAGSSSNIGAGHDVHWYQQIPGTAPKLLICGNTNRPSGVPERFSGSRSGTSASLAITGLQAEDEAVYYCQSYDPSHVFFGTGTKLTVL
B5: antibody 439 (antibody, V domains shown)
VH: QVQLVESGGGVVQPGRSLRLSCAASGFTFSSYAMHWVRQAPGKGLEWVAVISYDGSNKYYADSVKGRFTISRDNSKNTLYLQMNSLRAEDTAVYYCARPPRGGSYYPFDPWGQGTLVTVSS
VL: not shown
B6: antibody 446 (antibody, V domains shown)
VH: B5 VH with P100N, R101S, G103S, S104Y, Y105F, Y106G, P107Y, D109Q, P110H
VL: QSVLTQPPSVSGAPGQRVTISCTGSSSNIGAGYDVHWYQQLPGTAPKLLIYGNSNRPSGVPDRFSGSKSGTSASLAITGLQAEDEADYYCQSYDSSLSGFYVFGTGTKVTVL
B7: antibody 470 (antibody, V domains shown)
VH: not shown
VL: QSALTQPASVSGSPGQSITISCTGTSSDVGSYNLVSWYQQHPGKAPKLMIYEVSKRPSGVSNRFSGSKSGNTASLTISGLQAEDEADYYCCSYAGSSTLVFGGGTKLTVL
B8: antibody 434 (antibody, V domains shown)
VH: QVQLVQSGAEVKKPGASVQVSCKASGYTFSDYYIFWVRQAPGQGLEWMGCINPKSGGAIYAQRFQGRVTMTRDTSFNTAYMEMNRLGSDDTAVYYCVTRGPPDIAASGFAWHLDVWGQGTTVTVSS
VL: DIVMTQSPLSLPVTPGEPASISCRSSQSLLSSNGYNYLEWYLQKPGQSPQLLMYLGSNRASGVPDRFSGSGSGTDFTLKINRVEAEDVGVYYCMQALQTPLTFGGGTKVEIK
B9: antibody 454 (antibody, V domains shown)
VH: QVQLVQSGAEVKKPGASLKVSCKASGYIFTGYYMHWVRQAPGQGLEWMGWISPNSGGTKYAQKFQGRVTMTRDTSISTAYMELSRLRSDDSAVYYCAREPYYDILTGYYTPRRYLDYWGQGTLVTVSS
VL: QSALTQPASVSGSPGQSITISCTGTSSDVGDYNYVSWYQQHPGKVPKLMIYDVSHRPSGVTNRFSGSKSGNTASLTISGLRAEDEADYYCSSYTSSSTYVFGTGTKVTVL
B10: antibody 423 (antibody, V domains shown)
VH: EVQLVESGGGLIQPGGSLRISCAASGFTVRNNHMSWVRQAPGKGLEWVSVFYRGGTTYYADSVKGRFTISRDDSKNTVDLQMNSLRGEDTAVYYCARGLSVAASGYFDCWGQGTLVTVSS
VL: DIQMTQSPSSVSASVGDTVTITCRANQGISSWLAWYQQVPGKAPELLIYATSTLQSGVPSRFSGSGSGTDFTLTISSLQPEDFATYYCQQANSFPFTFGPGTKVDIK
B11: antibody 431 (antibody, V domains shown)
VH: B5 VH with V48L, P99S, P100F, S104Y, P107G, F108M, P110V, L116T
VL: DIQLTQSPSFLSASVGDRVTITCRASQGISSYLAWYQQKPGKAPKLLIYAASTLQSGVPSRFSGSGSGTEFTLTISSLQPEDFATYYCQQLNSYPLFTFGPGTKVDIK
B12: antibody 412 (antibody, V domains shown)
VH: QVQLVQSGAEVKKPGASVKVSCKASGYTFTSYGISWVRQAPGQGLEWMGWISAYNGNTNYAQKLQGRVTMTTDTSTSTAYMELRSLRSDDTAVYYCARVTVEAIFGVVILPLKNWFDPWGQGTLVTVSS
VL: QSVLTQPPSVSGAPGQRVTISCTGSSSNIGAGYDVHWYQQLPGTAPKLLIYGNSNRPSGVPDRFSGSKSGTSASLAITGLQAEDEADYYCQSYDSSLTLYVFGTGTKVTVL
B13: antibody 421 (antibody, V domains shown)
VH: QVQLVESGGGVVQPGRSLRLSCAASGFTFSTYAMHWVRQAPGKGLEWVAVISYDGSNKYYADSVKGRFTISRDNSKNTLYLQMNSLRAEDTAVYYCARGYGSGSYYPLYLYWGQGTLVTVSS
VL: not shown
B14: antibody 395 (antibody, V domains shown)
VH: QVQLVQSGSELKKPGASVKLSCQASGYTFSNHAMNWVRQAPGQGLEWMGWINTNTGNPTYAQGFTGRFVFSLDTSVGTAYLHISSLKAEDTAFYYCARASARPGVATNLDFWGQGTLVVVSS
VL: DIQMTQSPSSLSASVGDRVTITCRTSQNIDNYLNWYQQKPGKAPNLLIYAASRLHSGVPSRFSGSGSGTDFTLIISSLQPEDLATYYCQQSYSNPLTFGPGTKVDIR
B15: antibody 404 (antibody, V domains shown)
VH: QVQLVESGGGVVQPGRSLRLSCAASGFTFSSYGMHWVRQAPGKGLEWVAVIWYDGSNKYYADSVKGRFTISRDNSKNTLYLQMNSLRAEDTAVYYCARLAVDISFDGSDGMDVWGQGTTVTVSS
VL: SYELTQPPSVSVSPGQTARITCSGDALPKKYAYWYQQKSGQAPVLVIYEDSKRPSGIPERFSGSSSGTMATLTISGAQVEDEADYYCYSTDSSGKGVFGTGTKVTVL
B16: antibody 396 (antibody, V domains shown)
VH: QVQLQQWGAGLLKPSETLSLTCAVYGGSFSGYYWSWIRQPPGKGLEWIGEIIHSGSTNYNPSLKSRVTISVDTSKNQFSLKLSSVTAADTAVYYSARRTGLLWFREGSYYFDYWGQGTLVTVSS
VL: DIQMTQSPSSLSASVGDRVTITCRASQGIRNDLGWYQQKPGKAPKRLIYAASSLQSGVPSRFSGSGSGTEFTLTISSLQPEDFATYYCLQHNSYPLTFGGGTKVEIK
B17: antibody 409 (antibody, V domains shown)
VH: QVTLRESGPALVKPTQTLTLTCTFSGFSLSTSGMCVSWIRQPPGKALEWLALIDWDDDKYYSTSLKTRLTISKDTSKNQVVLTMTNMDPVDTATYYCARTTYYYVSGRRAEFDPWGQGTLVTVSS
VL: NFMLTQPHSVSESPGKTVTISCTGSSGSIASNYVQWYQQRPGSAPTTVIYEDNQRPSGVPDRFSGSIDSSSNSASLTISGLKTEDEADYYCQSYDSSNQGVFGGGTKLTVL
B18: antibody 385 (antibody, V domains shown)
VH: B5 VH with M34I, P100R, R101S, G103S, S104Y, Y105W, Y106G, P107A, P110I, L116M
VL: QSVLTQPPSVSGAPGQRVTISCTGSSSNIGARYDVHWYQQLPGTAPKLLIYGNSNRPSGVPDRFSGSKSGTSASLAITGLQAEDEADYYCQSYDSSLRGVFGGGTKLTVL
B19: antibody 422 (antibody, V domains shown)
VH: QVQLVQSGSELKKPGASVKVSCKASGYTFTSYAMNWVRQAPGQGLEWMGWINTNTGNPTYAQGFTGRFVFSLDTSVSTTYLQISSLKAEDTAVYYCARVIGVVTYYYYGMDVWGQGTTVTVSS
VL: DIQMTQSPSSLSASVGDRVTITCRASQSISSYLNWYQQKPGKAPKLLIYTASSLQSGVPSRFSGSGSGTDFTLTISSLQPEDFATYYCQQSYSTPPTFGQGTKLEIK
B20: antibody 407 (antibody, V domains shown)
VH: QVQLVESGGGVVQPGRSLRLSCAASGFTFSSYGMHWVRQAPGKGLEWVAVISYDGSNKYYADSVKGRFTISRDNSKNTLYLQMNSLRAEDTAVYYCAKCGWDYDFWVGQGYGMDVWGQGTTVTVSS
VL: not shown
B21: antibody 392 (antibody, V domains shown)
VH: QVQLQESGPGLVKPSGTLSLTCAVSGGSISSSNWWSWVRQPPGKGLEWIGEIYHSGSTNYNPSLKSRVTISVDKSKNQFSLKLSSVTAADTAVYYCARGWRATLYGMDVWGQGTTVTVSS
VL: B7 VL with L99W
B22: antibody 405 (antibody, V domains shown)
VH: not shown
VL: B7 VL with A8R, I18V, S31G, L34Y, E52D, S61P, N62D, S97Y, T98N, L99V

One experiment addresses SARS-CoV spike protein (full length, trimeric) (SARS-CoV, UniProt P59594 14-1190).
In the case of B1, the “fold over isotype control (median fluorescence)” value (“fold … (median fluorescence)” below) came to 1.1 fold over isotype.
With B2, the “fold … (median fluorescence)” value came to 1.09 fold over isotype.
On the same count and under the same terms, for B3 the value was 1 fold over isotype.
For B4, the “fold … (median fluorescence)” value amounted to 1.03 fold over isotype.
Still for that read-out and setting: the result for B5 reads 1.23 fold over isotype; that for B6, 6.58 fold over isotype; that for B7, 1.09 fold over isotype.
As to B8, the “fold … (median fluorescence)” value worked out at 1.36 fold over isotype.
As to B9, the “fold … (median fluorescence)” value was found to be 1.1 fold over isotype.

The target in the next experiment is SARS-CoV spike protein (full length spike, trimeric, conjugated to beads) (SARS-CoV, UniProt P59594 14-1190).
Take B10: the “median fluorescence fold over isotype control” value (from here on “median fluorescence fold”) turned out to be 1.23 fold over isotype control.
For B11, the “median fluorescence fold” value was 49.9 fold over isotype control.
Take B12: the “median fluorescence fold” value turned out to be 1.09 fold over isotype control.
Same read-out and setting: the result for B13 reads 1.19 fold over isotype control; that for B14, 1.16 fold over isotype control.
As to B15, the “median fluorescence fold” value came out at 1.04 fold over isotype control.
The same measure, in the same setting: the result for B16 reads 1.36 fold over isotype control; that for B17, 1.03 fold over isotype control.
B18: the “median fluorescence fold” value is 59.6 fold over isotype control.
Regarding B19, the “median fluorescence fold” value came out at 1.19 fold over isotype control.
The same measure, in the same setting: for B20 the value was 1.07 fold over isotype control; for B21, 1.08 fold over isotype control; for B22, 80.9 fold over isotype control.
